Target: the molecule itself
Assay: cryo-EM structure

B1: full-length hemagglutinin (HA) from A/duck/Alberta/35/76(H1N1) virus (natural protein)
chain 1: not shown
chain 2: not shown
- stoichiometry N: 3
